Source: patent US20250109182A1 (KITE PHARMA, published 2025)
One block for each binder: values may come before it.

Experiments:
[1] = molecular target: TGF-β Receptor Type II (TGF-βRII), endogenous wild-type, in primary human T cells (human, UniProt P37173 23-567); test: cell-based or functional assay
[2] = molecular target: T1, recombinant human GPC3 (rhGPC3) fluorescently conjugated to DyLight 650 (human, UniProt P51654 25-559, limits assumed, fluorescently conjugated to DyLight 650); test: flow cytometry; transduced T cells stained with rhGPC3-DyLight 650 at 1:200; gated live CD3+
T1 construct: Soluble staining reagent for flow cytometry, diluted 1:200; also called Glypican-3
T1 sequence (P51654 25-559 limits assumed): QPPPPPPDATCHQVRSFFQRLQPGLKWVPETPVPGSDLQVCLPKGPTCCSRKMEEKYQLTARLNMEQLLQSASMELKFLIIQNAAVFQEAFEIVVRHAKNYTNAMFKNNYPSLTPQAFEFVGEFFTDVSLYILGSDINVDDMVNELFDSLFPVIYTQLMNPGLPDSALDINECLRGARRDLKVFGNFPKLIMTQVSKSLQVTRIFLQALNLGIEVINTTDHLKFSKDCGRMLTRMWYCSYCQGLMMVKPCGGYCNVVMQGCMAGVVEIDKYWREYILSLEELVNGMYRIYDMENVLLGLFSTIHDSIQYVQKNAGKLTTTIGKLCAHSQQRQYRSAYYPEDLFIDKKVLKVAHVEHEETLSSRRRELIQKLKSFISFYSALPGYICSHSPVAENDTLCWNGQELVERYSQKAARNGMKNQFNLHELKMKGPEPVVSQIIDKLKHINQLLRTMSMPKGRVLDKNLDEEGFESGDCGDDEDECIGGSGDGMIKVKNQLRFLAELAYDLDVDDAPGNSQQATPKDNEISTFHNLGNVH
Description: (§1) Similar to the previous trials, CD3⁺ cells were isolated from primary human peripheral blood mononuclear cells (PBMCs) and transduced with the GPC3 CAR constructs above in the presence of polybrene and at a multiplicity of infection of two, based on expression titer in Jurkat cells. At the end of manufacturing, cells were frozen down in Cryostor® CS5 and stored in liquid nitrogen until thawing. Upon thawing, cells were rested in T cell culture medium overnight with 100 UI/mL IL-2, washed, and stained with Live/Dead™ Violet diluted at 1:1000, recombinant human GPC3 (rhGPC3) fluorescently conjugated to DyLight™ 650 diluted at 1:200, and anti-CD3 BV650 at 1:100 in PBS for 30 min at 4° C. The DNA of a pellet of 1×10⁵ cells was extracted in QuickExtract™ Buffer, frozen, and used to measure average vector copy number (VCN) by droplet digital PCR quantifying frequency of integrated virus per cell. Percentage CAR+ cells are defined as percentage of cells staining with rhGPC3 amongst Live/Dead™ negative, CD3⁺ positive cells, and Mean Fluorescence Intensity (MFI) of CAR⁺, and Vector copy number (VCN) are given in the example. […] Construct CAR 1 also has higher MFI of CAR⁺ cells, which could indicate more efficient expression or higher affinity of the CAR to rhGPC3.

[3] = molecular target: T1, recombinant human GPC3 (rhGPC3) …; test: flow cytometry; rhGPC3-DyLight 650 staining of CAR+ T cells
Description: as §1

Sequence of TGF-β Receptor Type II (TGF-βRII), endogenous wild-type, in primary human T cells (P37173 23-567): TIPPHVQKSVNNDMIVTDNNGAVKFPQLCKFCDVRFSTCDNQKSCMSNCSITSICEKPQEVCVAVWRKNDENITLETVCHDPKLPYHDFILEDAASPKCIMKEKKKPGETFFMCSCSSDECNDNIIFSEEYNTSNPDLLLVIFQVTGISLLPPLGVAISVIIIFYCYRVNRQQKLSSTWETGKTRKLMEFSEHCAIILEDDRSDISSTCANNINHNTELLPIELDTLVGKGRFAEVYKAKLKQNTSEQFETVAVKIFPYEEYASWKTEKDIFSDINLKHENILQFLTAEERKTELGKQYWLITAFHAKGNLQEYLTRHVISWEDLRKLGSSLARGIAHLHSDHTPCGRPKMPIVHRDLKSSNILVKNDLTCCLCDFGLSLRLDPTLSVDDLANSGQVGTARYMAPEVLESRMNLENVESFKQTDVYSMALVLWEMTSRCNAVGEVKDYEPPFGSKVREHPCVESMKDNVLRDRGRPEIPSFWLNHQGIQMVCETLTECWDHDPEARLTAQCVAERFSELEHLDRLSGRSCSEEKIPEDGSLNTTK

- fold less induction of pSMAD2 and pSMAD3 versus PSMA CAR only, TGF-β1 stimulated T cells [1]: ~2 fold
- fold less induction of pSMAD2 versus CD19 CAR only, TGF-β1 stimulated T cells [1]: ~4 fold
- fold less induction of pSMAD2 versus GPC3 CAR only, 4-1BB co-stimulation, TGF-β1 stimulated T cells [1]: ~3 fold
- fold less induction of pSMAD3 versus CD19 CAR only, TGF-β1 stimulated T cells [1]: ~2 fold
- fold less induction of pSMAD3 versus GPC3 CAR only, 4-1BB co-stimulation, TGF-β1 stimulated T cells [1]: ~1.3 fold
B1: engineered, dominant-negative TGF-β receptor Type 1 (DN TGF-βRI) construct of SEQ ID NO: 10 (receptor)
chain: LQCFCHLCTKDNFTCVTDGLCFVSVTETTDKVIHNSMCIAEIDLIPRDRPFVCAPSSKTGSVTTTYCCNQDHCNKIELPTTVKSSPGLGPVELAAVIAGPVCFVCISLMLMVYIRVNRQ

- % CAR + (percentage of cells staining with rhGPC3) [2]: 93.4%
- MFI CAR + [3]: 21100 MFI
B2: Construct CAR 1 (GPC3 scFv + 4-1BB intracellular domain + CD3ζ intracellular domain), GPC3-CAR encoded by the codon-optimized sequence of SEQ ID NO: 51 (other)
chain: DIVMTQSPDSLAVSLGERATINCKSSQSLLYSSNQKNYLAWYQQKPGQPPKLLIYWASSRESGVPDRFSGSGSGTDFTLTISSLQAEDVAVYYCQQYYNYPLTFGQGTKLEIKGSTSGSGKPGSGEGSTKGEVQLVESGGGLVQPGGSLRLSCAASGFTFNKNAMNWVRQAPGKGLEWVGRIRNKTNNYATYYADSVKARFTISRDDSKNSLYLQMNSLKTEDTAVYYCVAGNSFAYWGQGTLVTVSSGSTTTPAPRPPTPAPTIASQPLSLRPEACRPAAGGAVHTRGLDFACDIYIWAPLAGTCGVLLLSLVITLYCKRGRKKLLYIFKQPFMRPVQTTQEEDGCSCRFPEEEEGGCELRVKFSRSADAPAYQQGQNQLYNELNLGRREEYDVLDKRRGRDPEMGGKPRRKNPQEGLYNELQKDKMAEAYSEIGMKGERRRGKGHDGLYQGLSTATKDTYDALHMQALPPR
notes: Chimeric antigen receptor expressed on transduced primary human CD3+ T cells; also called GPC3-CAR construct
